Laboratory results: patent publication US20170101442A1 (published 2017)

How the values were obtained:
422 = test: cell binding (labeled cells %); HSC-T6 cells; apparent Kd
515 = test: as above

Kd 422: 402 µM
Kd 515: 57.6 µM
B1: HSC-T6 cells (receptor)
chain: QAVDLDALCSYTWEAVDSKNNAVYKINPCGHVDNPRCGPTSAVCMCDLKSENCRSVGDSLLRSSAKSLLEFNTTTGCQPSEHRIQTSITFLCGKTLGTPEFVTATDCVHYFEWRTTAACKKDIFKADKEVPCYVFDDKLQKHDLNPLIKLNGGYLVDDSDADASLFINVCRDIDSLRDPSTQLRVCPAGTAACLLKGNQAFDVGRPKEGLKLLSKDRLVLTYVKEEGEKPDFCNGHSPAVTVTFVCPSERREGTIPKLTAKSNCRYEVEWITEYACHRDYLESETCSLSSEQHDIAIDLSPLAQHEEGSPYVADGGEYRFFMNVCGDTKVSLCNKEAAVCQEKKVDSTQVKIAGRHQNQTLRYSDGDLTLIYSGGDECSSGFQRMSVINFECNKTAGQDGRGEPVFTGEVDCTYFFTWDTKYACVKEKEDLLCGAIDGKKRYDLSVLARHSESEQNWEAVDGSQAESEKRNFFINVCHRVLQAGKAKNCPEGAAVCAVDKSGSKNLGKFVSSPTKEKGHIQLSYSDGDDCGNDKKITTNITFVCKPGDLESAPVLRAAGPDGCSYEFEWHTAAACVLSQTEGENCTVLDAQAGFSFDLSLLTKKNGAYKVETDKYDFYINVCGPVSVNLCQSNSGACQVAKSGKSWNLGLSNTKLTYYDGMIQLSYRNGTLYNNEKHTPRSTLITFLCDRDAGVGFPEYQEEDNSTYNFRWYTSYACPEEPLECMVTDPSMMEQYDLSSLVKFEGGRGGNWYAMENSREHFTRRKYYLNVCRPLNPVPGCDRYASACQMKYENNEGSLAETVAISNLGVAKTGPVVEESGSLLLEYVNGSACTTSDGRLTTYSTRIHLVCGRGTMNSHPIFTFNWECVVSFLWNTEAACPIQTITDSDQACSIRDPNSGFVFNLSPLNYSQGHMVLGIGKTFVFNICGTMPACGTVAGKPALGCEAETKIKDIKDLKPERPVGMEKSLQLSAEGFLTLTYKGSSPSDRGTAFIIRFICNGDIYPGTPKFLHQDIDSARGIRNTFFEFETALACIPSVVDCQVTDPAGNEYDLSALSMVRKPWTAVDTSVHGKKRRFYLSVCTPLPYIPGCDGIAMGSCMVSEDKSQNLGVVQISPQATGNGSLSILYVNGDRCGNQRYSTRIVFECAQTSGSPMFQLLNNCEYVFVWRTVEACPVVREEGDNCQVKDPRHGNLYDLKPLALNDTIISAGEYTYYFRVCGKLSLDVCSAHDGSKAVSSCQEKKGPQGFQKVAGLLNQKLTFENGLLKMNYSGGDTCHKVYQRSTTIYFYCDRTTQKPVFLKETLDCSYLFEWRTQYACPPFNVTECSIQDEAGNSIDLSSLSRYSDNWEAVTRTGATEHYLINVCKSLSPQAGTDPCPPEAAVCLLDGSKPVNLGRVRDGPQWTAGVTVLKYVDGDLCPDKIRKRSTIIRFTCSDSQVNSRPLFISAVQDCEYTFSWPTPAACPVKSNIHDDCQVTNPSTGHLFDLSSLSGKAGITASYSEKGMVFMSICEENVNCSPGVGACFGQTRISVGQASKRLSYKDQVLQLVYENGSPCPSKSGLRYKSVISFVCRPEAGPTNRPMLISLDKQSCTLFFSWHTPLACEQATECTVRNGSSIIDLSPLIHRTGGYEAYDESEDDTSDTTPDFYINICQPLNPMHGVPCPAGASVCKVPVDGPPIDIGRVTGPPIFNPVANEVYLNFESSTPCLADKYMNYTSLIAFHCRRGISMVTRDAHTYSIGVCTTAADLDQEGCKDGGVCLLSGSKGASFGRLASMQLDYRHQDEAVILSYVNGDPCPPETEDGEPCVFPFIYKGETYDECVLEGRAKLWCSKTANYDRDHEWGFCRPSTLSICAKEYIKVPWTALREPAFARRVPLVKSRFWGLFILKNWKS
